Read-outs that look alike come from different tables or passages of the source. Blank lines part the entries; values can stand above or below the substance they belong to.
Assays:
[1] = target: FLAG-mYFP-β2AR (β2-adrenergic receptor), total receptor pulled down with anti-FLAG (mouse) (UniProt P18762); assay: single-molecule pulldown (SiMPull) with two-colour co-localisation; FLAG-mYFP-β2AR and FLAG-mCherry-β2AR co-expressed 1:1 in HEK293, ISO-treated; lysate pulled down with anti-FLAG or phospho-specific antibodies; mCherry and mYFP spots within 1 pixel (~150 nm) counted as co-localised; overlap = co-localised mYFP / total mYFP; reference mCherry-mYFP fusion gives 58.8% overlap
[2] = target: FLAG-mYFP-β2AR (β2-adrenergic receptor), total receptor pulled down with anti-FLAG (mouse) (UniProt P18762); assay: single-molecule pulldown (SiMPull) with photobleaching step analysis; lysates (10 mM Tris pH 7.9, 0.1% DDM, 150 mM NaCl, 2 mM EDTA) of cells expressing mYFP-tagged receptor, untreated or ISO 5 min; captured on slides by biotinylated anti-FLAG or by phospho-specific β2AR antibodies with biotinylated secondary IgG; TIRF; bleaching steps of mYFP counted; percent dimer calculated assuming 75% active mYFP
[3] = target: GRK-phosphorylated β2AR (FLAG-mYFP-β2AR pulled down with anti-pS355/356) (mouse) (UniProt P18762); assay: as above
[4] = target: GRK-phosphorylated β2AR (FLAG-mYFP-β2AR pulled down with anti-pS355/356) (mouse) (UniProt P18762); assay: single-molecule pulldown (SiMPull) with two-colour co-localisation; FLAG-mYFP-β2AR and FLAG-mCherry-β2AR co-expressed 1:1 in HEK293, ISO-treated; lysate pulled down with anti-FLAG or phospho-specific antibodies; mCherry and mYFP spots within 1 pixel (~150 nm) counted as co-localised; overlap = co-localised mYFP / total mYFP; reference mCherry-mYFP fusion gives 58.8% overlap
[5] = target: GRK-phosphorylated β2AR (FLAG-mYFP-β2AR pulled down with anti-pS355/356) (mouse) (UniProt P18762); assay: single-molecule pulldown (SiMPull) with photobleaching step analysis; lysates (10 mM Tris pH 7.9, 0.1% DDM, 150 mM NaCl, 2 mM EDTA) of cells expressing mYFP-tagged receptor, untreated or ISO 5 min; captured on slides by biotinylated anti-FLAG or by phospho-specific β2AR antibodies with biotinylated secondary IgG; TIRF; bleaching steps of mYFP counted; percent dimer calculated assuming 75% active mYFP; remark: listed apart in the source
[6] = target: PKA-phosphorylated β2AR (FLAG-mYFP-β2AR pulled down with anti-pS261/262) (mouse) (UniProt P18762); assay: single-molecule pulldown (SiMPull) with two-colour co-localisation; FLAG-mYFP-β2AR and FLAG-mCherry-β2AR co-expressed 1:1 in HEK293, ISO-treated; lysate pulled down with anti-FLAG or phospho-specific antibodies; mCherry and mYFP spots within 1 pixel (~150 nm) counted as co-localised; overlap = co-localised mYFP / total mYFP; reference mCherry-mYFP fusion gives 58.8% overlap
[7] = target: PKA-phosphorylated β2AR (FLAG-mYFP-β2AR pulled down with anti-pS261/262) (mouse) (UniProt P18762); assay: single-molecule pulldown (SiMPull) with photobleaching step analysis; lysates (10 mM Tris pH 7.9, 0.1% DDM, 150 mM NaCl, 2 mM EDTA) of cells expressing mYFP-tagged receptor, untreated or ISO 5 min; captured on slides by biotinylated anti-FLAG or by phospho-specific β2AR antibodies with biotinylated secondary IgG; TIRF; bleaching steps of mYFP counted; percent dimer calculated assuming 75% active mYFP

FLAG-mYFP-β2AR (β2-adrenergic receptor), total receptor pulled down with anti-FLAG, P18762 1-418 (receptor; other documents disagree on this pair), sequence (P18762 whole entry): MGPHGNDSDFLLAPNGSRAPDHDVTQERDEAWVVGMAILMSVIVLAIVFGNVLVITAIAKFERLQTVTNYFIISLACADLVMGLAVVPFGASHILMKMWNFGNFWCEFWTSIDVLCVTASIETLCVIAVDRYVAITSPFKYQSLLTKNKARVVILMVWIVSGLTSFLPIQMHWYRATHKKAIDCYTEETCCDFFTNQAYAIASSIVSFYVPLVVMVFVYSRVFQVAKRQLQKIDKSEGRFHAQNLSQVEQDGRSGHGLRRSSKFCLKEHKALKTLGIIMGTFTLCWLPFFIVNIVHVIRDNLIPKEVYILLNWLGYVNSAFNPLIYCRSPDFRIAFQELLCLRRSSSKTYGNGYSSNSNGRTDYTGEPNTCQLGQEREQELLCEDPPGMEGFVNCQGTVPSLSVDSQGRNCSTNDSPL
GRK-phosphorylated β2AR (FLAG-mYFP-β2AR pulled down with anti-pS355/356), P18762 1-418 (receptor; phosphoserine at 355/356; phosphoserine at 355/356; other documents disagree on this pair), sequence (P18762 whole entry): as above
PKA-phosphorylated β2AR (FLAG-mYFP-β2AR pulled down with anti-pS261/262), P18762 1-418 (receptor; phosphoserine at 261/262; phosphoserine at 261/262; other documents disagree on this pair), sequence (P18762 whole entry): as above

percent overlap between mYFP and mCherry copies [1]: 13.2%
percent dimers [2]: 42.7%
stoichiometry N [2]: 2
Substance: FLAG-mYFP-β2AR (β2-adrenergic receptor), total receptor pulled down with anti-FLAG, P18762 1-418 (receptor; other documents disagree on this pair)

percent dimers [3]: 12%
percent monomers [3]: 88%
percent overlap between mYFP and mCherry copies [4]: < 3.2%
percent monomers [5]: 86.5%
Substance: GRK-phosphorylated β2AR (FLAG-mYFP-β2AR pulled down with anti-pS355/356), P18762 1-418 (receptor; phosphoserine at 355/356; phosphoserine at 355/356; other documents disagree on this pair)

percent overlap between mYFP and mCherry copies [6]: > 20.4%
percent dimers [7]: 68.8%
stoichiometry N [7]: 2
Substance: PKA-phosphorylated β2AR (FLAG-mYFP-β2AR pulled down with anti-pS261/262), P18762 1-418 (receptor; phosphoserine at 261/262; phosphoserine at 261/262; other documents disagree on this pair)
